Substitutions are numbered along the chain they refer to.
B1: LCB3-NS (LCB3 H19aNBDC) (designed binder)
chain: MNDDELHMLMTDLVYEALCFAKDEEIKKRVFQLFELADKAYKNNDRQKLEKVVEELKELLERLLS
B2: VHH72 wt (VHH)
VHH: QVQLQESGGGLVQAGGSLRLSCAASGRTFSEYAMGWFRQAPGKEREFVATISWSGGSTYYTDSVKGRFTISRDNAKNTVYLQMNSLKPDDTAVYYCAAAGLGTVVSEWDYDYDYWGQGTQVTVSS
B3: VHH72 G56MDCcC (VHH)
VHH: B2 VHH with G56C
B4: VHH72 NoK wt (VHH)
VHH: B2 VHH with K43R, K65R, K76R, K87R

Tests used:
[1] = molecular target: T1, SARS-CoV-2 Spike RBD, Wuhan (SARS-CoV-2, UniProt P0DTC2 319-541)
[2] = molecular target: T1, SARS-CoV-2 Spike RBD, Wuhan; remark: listed apart in the source

Row | Binder | EC50 [1] [nM] | Kd [2] [nM]
1 | B1 | 6400 | –
2 | B2 | – | 45
3 | B3 | 1100 | –
4 | B4 | – | 75

From US20260139001A1 (Harvard, published 2026)
